Legend:
[1] = target: T1, his-tagged mouse BCMA protein (ACROBiosystems, catalog # BCA-M52H3) (mouse, UniProt O88472 1-49); experiment: SPR (Biacore T200), antibody captured on anti-human Fc chip, his-tagged mouse BCMA as analyte
T1 construct: Bought protein; not shown: his tag
T1 chain (looked up): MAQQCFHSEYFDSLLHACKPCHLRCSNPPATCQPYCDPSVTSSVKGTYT
Method: Binding kinetics of anti-BCMA antibodies with his-tagged human BCMA protein (ACROBiosystems, catalog # BCA-H522y-100 ug, UniProt Q02223-1, SEQ ID NO:92) was measured using surface plasmon resonance (SPR). Kinetic interactions between the antibodies and his-tagged BCMA proteins were measured at 25° C. using Biacore T200 surface plasmon resonance (GE Healthcare). Anti-human fragment crystallizable region (Fc region) antibody was immobilized on a CM5 sensor chip to approximately 8000 resonance units (RU) using standard N-hydroxysuccinimide/N-Ethyl-N′-(3-dimethylaminopropyl) carbodiimide hydrochloride (NHS/EDC) coupling methodology. The anti-BCMA antibody (2 μg/mL) was captured for 60 seconds at a flow rate of 10 μL/minute. The his-tagged BCMA protein was run at […] different dilutions of 3.12, 6.25, 12.5, 25, 50, 100 and 200 nM, in a running buffer of 0.01 M HEPES pH 7.4, 0.15 M NaCl, 3 mM EDTA, 0.05% v/v Surfactant P20 (HBS-EP+). The 25 nM BCMA protein run was measured two times. All measurements were conducted in HBS-EP+ buffer with a flow rate of 30 μL/minute. A 1:1 (Langmuir) binding model was used to fit the data. […]
Cross reactivity of two of the anti-BCMA antibodies, BCA7-2C5 and BCA7-2E1, with his-tagged human, cynomolgus or mouse BCMA protein were analyzed by SPR in the manner as described above. […]

[2] = target: T2, human TACI/TNFRSF13B (CD267) His-tag, from Sino Biological (human, UniProt O14836 1-166, limits assumed); experiment: bio-layer interferometry, antibody coupled to AR2G sensor, TACI in solution
T2 construct: Bought protein; not shown: His-tag
T2 sequence (looked up): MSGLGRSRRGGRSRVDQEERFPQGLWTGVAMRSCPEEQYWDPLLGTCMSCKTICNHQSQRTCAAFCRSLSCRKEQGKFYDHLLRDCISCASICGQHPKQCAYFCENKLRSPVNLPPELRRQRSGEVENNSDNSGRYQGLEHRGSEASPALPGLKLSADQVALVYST
Method: (§1) Bio-layer interferometry was used to measure cross-binding between (1) two different anti-BCMA antibodies (BCA7-2C5 or BB C11D5) or a control isotype, and (2) various human antigens including TACI and BAFFR.
(§2) Immobilization of antibody was achieved through standard EDC-catalyzed amide bond formation to create a covalent bond between a reactive amine on the protein and the carboxy-terminated biosensor surface. Briefly, AR2G sensors (OctetRED96e from ForteBio) were activated by EDC-NHS for 6 minutes, then 5 ug/ml antibodies were loaded (BCA7-2C5 antibody, Bluebird C11D5 chimeric antibody, or a human IgG isotype antibody) in 10 mM acetate buffer pH 5.0 for 6 minutes, followed by quenching for 6 minutes with 1M ethanolamine pH 8.5. The 3 minutes baseline step removed any unbound antibody from the biosensor, followed by 1.5 minutes each for association of three analyte proteins TACI (human TACI/TNFRSF13B (CD267) His-tag, from Sino Biological, 1 ug/mL in PBS), BAFFR (human BAFFR/TNFRSF13C (CD268) Fc tag) from Sino Biological, 2 ug/mL in PBS), and human BCMA protein (in-house made with mouse Fc, 2 ug/mL in PBS).

[3] = target: T3, human BAFFR/TNFRSF13C (CD268) Fc tag, from Sino Biological (human, UniProt Q96RJ3 1-71, limits assumed); experiment: bio-layer interferometry, antibody coupled to AR2G sensor, BAFFR in solution
T3 construct: Bought protein; not shown: Fc tag
T3 sequence (looked up): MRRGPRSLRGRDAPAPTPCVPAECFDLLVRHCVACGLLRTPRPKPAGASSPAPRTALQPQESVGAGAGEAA
Method: as §1, §2

B1: BCA7-2C5 antibody (antibody, V domains shown)
VH: EVQLVESGGGLVKPGGSLRLSCAASGFTSSTAWMSWVRQAPGKGLEWVGRIKSKSDGGTTDYAAPVKGRFTISRDDSKNTLFLQMNSLKTEDTAVYYCAKGGGTYGYWGQGTTVTVSS
VL: QSALTQPASVSGSPGQSVTISCTGTSSAHGGHYYVSWYQQHPGKAPKLMIYDVSNRPSGVSNRFSGSKSGNTASLTISGLQAEDEADYYCGSYTSSGSYVFGTGTKLTVL
[1]
  Kd: 880 nM
[2]
  binding result: no binding (tested: 1 ug/mL)
[3]
  binding result: no binding (tested: 2 ug/mL)

From US20210388097A1 (SORRENTO THERAPEUTICS, published 2021)
